Experimental findings from patent US20230183336A1 (MODMAB THERAPEUTICS, published 2023) are described below.

In the assay the target is T1, recombinant human LRP6-Fc chimera (human, UniProt O75581 20-1370).
T1 construct: extracellular domain; also called ECD of human LRP6; not shown: Fc part of the chimera
T1 sequence (looked up): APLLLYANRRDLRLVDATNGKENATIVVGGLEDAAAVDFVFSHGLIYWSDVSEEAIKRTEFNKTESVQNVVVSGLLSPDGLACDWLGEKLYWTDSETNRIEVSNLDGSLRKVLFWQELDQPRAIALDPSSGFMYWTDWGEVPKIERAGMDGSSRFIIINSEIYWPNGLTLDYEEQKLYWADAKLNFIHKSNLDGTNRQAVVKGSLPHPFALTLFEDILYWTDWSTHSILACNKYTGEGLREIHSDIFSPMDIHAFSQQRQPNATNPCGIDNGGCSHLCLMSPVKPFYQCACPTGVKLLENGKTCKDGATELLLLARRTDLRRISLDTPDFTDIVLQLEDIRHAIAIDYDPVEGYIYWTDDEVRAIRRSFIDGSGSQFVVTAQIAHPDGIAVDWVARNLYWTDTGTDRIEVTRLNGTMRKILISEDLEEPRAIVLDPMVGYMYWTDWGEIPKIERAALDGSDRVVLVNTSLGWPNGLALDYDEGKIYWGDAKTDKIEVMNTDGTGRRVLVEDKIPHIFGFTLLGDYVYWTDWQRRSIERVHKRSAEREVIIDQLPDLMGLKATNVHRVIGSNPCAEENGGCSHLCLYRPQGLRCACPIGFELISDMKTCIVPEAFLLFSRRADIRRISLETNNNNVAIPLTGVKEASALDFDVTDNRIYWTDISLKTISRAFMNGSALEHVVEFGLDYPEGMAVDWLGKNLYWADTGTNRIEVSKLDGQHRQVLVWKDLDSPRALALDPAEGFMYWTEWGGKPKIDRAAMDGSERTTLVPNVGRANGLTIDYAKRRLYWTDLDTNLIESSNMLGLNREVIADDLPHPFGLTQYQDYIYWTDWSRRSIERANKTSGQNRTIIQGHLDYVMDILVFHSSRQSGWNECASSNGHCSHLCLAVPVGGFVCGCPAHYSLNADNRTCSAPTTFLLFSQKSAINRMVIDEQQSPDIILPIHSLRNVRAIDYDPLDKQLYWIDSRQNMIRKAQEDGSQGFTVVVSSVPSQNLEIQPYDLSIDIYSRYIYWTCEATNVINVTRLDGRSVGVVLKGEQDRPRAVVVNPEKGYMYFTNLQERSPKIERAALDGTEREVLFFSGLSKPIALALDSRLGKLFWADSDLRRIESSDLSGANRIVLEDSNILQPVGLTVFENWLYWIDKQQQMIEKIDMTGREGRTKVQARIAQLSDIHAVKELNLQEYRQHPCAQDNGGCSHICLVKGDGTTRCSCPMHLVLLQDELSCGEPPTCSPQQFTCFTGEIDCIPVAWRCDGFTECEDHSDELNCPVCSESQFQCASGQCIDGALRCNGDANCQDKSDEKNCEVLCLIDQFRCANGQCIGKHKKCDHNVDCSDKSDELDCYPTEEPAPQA
The assay is described as follows: multipoint competitive ELISA, IgG1; varied competitor printed as recombinant human LRP6-Fc chimera, while paragraph 283 says 'the recombinant antigen'. From the text: The full length IgG1s and the antibody fragments (Fabs) were purified and a single-point ELISA was done to determine the specificity of the antibodies. […] A multipoint competitive ELISA was used to determine the relative affinities of the antibodies to the recombinant antigen.
Table 3 reports the IC50 of LRP5 antibodies as determined by competitive ELISA. The log of the recombinant human LRP6-Fc chimera concentration (x-axis) was plotted against the OD450 reading of the antibody (y-axis). The IC50 was determined by non-linear regression analysis.
For orientation: ELISA stands for enzyme-linked immunosorbent assay.

B1: LRP5-H5 (antibody, V domains shown)
VH: EVQLVESGGGLVQPGGSLRLSCAASGFNLSYSSIHWVRQAPGKGLEWVASISSSYGSTSYADSVKGRFTISADTSKNTAYLQMNSLRAEDTAVYYCARGYWAIDYWGQGTLVTVSS
VL: DIQMTQSPSSLSASVGDRVTITCRASQSVSSAVAWYQQKPGKAPKLLIYSASSLYSGVPSRFSGSRSGTDFTLTISSLQPEDFATYYCQQPVGHYGYPITFGQGTKVEIKR
notes: Fab-phage in the screen
What is called IC50 is the concentration at which inhibition is half-maximal. Turning to B1, the IC50 amounted to 4.44 nM.
